This passage reports stoichiometry N results from publication PMC11961569.

The experiment has as its target EfpA^EM (BRIL-P171R EfpA, Mycobacterium tuberculosis efflux protein A) (not stated | Mycobacterium tuberculosis) (UniProt P9WJY4). In words: cryo-EM structure; EfpA-EM mixed with anti-BRIL Fab and anti-Fab elbow Nb (1:1.5:2), separated on Superose 6 in 50 mM Tris-Cl pH 7.5, 300 mM NaCl, 0.02% GDN; apo sample gave antiparallel (dominant) and parallel dimers; samples with BRD-8000.3 or BRD-9327 gave antiparallel dimers.

What is called stoichiometry N is the number of molecules, sites or subunits per partner or assembly.

“EfpA^EM (BRIL-P171R EfpA, Mycobacterium tuberculosis efflux protein A) (from UniProt P9WJY4 49-530)” gave a stoichiometry N of 2.
